# Assay results as given in paper PMC3413214, “Structural and biochemical characterization of a trapped coenzyme A adduct of Caenorhabditis elegans glucosamine-6-phosphate N-acetyltransferase 1” (Acta Crystallographica Section D: Biological Crystallography, 2012).
# B1: Caenorhabditis elegans glucosamine-6-phosphate N-acetyltransferase 1 (enzyme, UniProt Q17427 1-165, looked up)
# chain: MSHIFDASVLAPHIPSNLPDNFKVRPLAKDDFSKGYVDLLSQLTSVGNLDQEAFEKRFEAMRTSVPNYHIVVIEDSNSQKVVASASLVVEMKFIHGAGSRGRVEDVVVDTEMRRQKLGAVLLKTLVSLGKSLGVYKISLECVPELLPFYSQFGFQDDCNFMTQRF
# notes: glucosamine-6-phosphate N-acetyltransferase 1 (GNA1) of Caenorhabditis elegans, full length, 165 amino acids per monomer; amplified from C. elegans cosmid B0024 DNA; Cloned into pGEX-6P-1 by BamHI and EcoRI; a few vector residues probably remain at the N-terminus after PreScission cleavage (surmised); In the orthorhombic crystal it holds CoA and GlcNAc-6P non-covalently; also called CeGNA1; GNA1; …
# B2: CeGNA1–Cys–CoA adduct (enzyme, Caenorhabditis elegans, UniProt Q17427 1-165, looked up)
# chain: B1 chain
# modifications: Cys141 linked by a disulfide to coenzyme A
# notes: glucosamine-6-phosphate N-acetyltransferase 1 (GNA1) of Caenorhabditis elegans, full length, 165 amino acids per monomer; same construct as m1; Same polypeptide as m1; differs only by the covalent CoA on Cys141, which DTT releases; also called CeGNA1–CoA adduct; covalent CoA complex; source: E. coli BL21 (DE3) pLysS, purified; adduct formed in the hexagonal (P6_1) crystals grown with acetyl-CoA, …
# What was measured:
# [1] = target: the molecule itself; experiment: SEC; Superdex 75 26/60 gel-filtration column in buffer A (25 mM Tris-HCl pH 7.5, 250 mM NaCl, 2 mM EDTA); elution profile
# [2] = target: the molecule itself; experiment: crystal structure; sitting-drop vapour diffusion, 0.1 M Tris-HCl pH 8.5, 0.2 M sodium acetate, 30% PEG 3350, 11 mM BaCl2, 293 K; orthorhombic P2_1 2_1 2_1 form (1.75 Å, CoA and GlcNAc-6P bound) and hexagonal P6_1 form (1.55 Å, Cys141-CoA adduct); two subunits A and B in each
protein,measurement,setting,value
B1,stoichiometry N,[1],2
B2,binding result,[2],binds
